Experimental data taken from a protein production outcome set (Wang et al. 2014).

Assay: label from the status in PepcDB records
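Note: failed if final PepcDB status was selected cloned or expressed and not failed if soluble or beyond.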

In the case of “MKKLIVDLDGTLTQANTSDYRNVLPRLDVIEQLREYHQLGFEIVISTARNMRTYEGNVGKINIHTLPIITEWLDKHQVPYDEILVGKPWCGHDGFYIDDRAVRPSEFASMNLEEIHQLFEKEKSCS”, the protein production is reported as “not failed”.
In the case of “MNFEGIIIAAISFFIIGIFHPIVIKLEYYLTKNIWPLFLILGIIFIIISLFQKQTVAAAIMGIIGATCIWSIKEIFEQEKRVQKGWFPKNPRKK”, the protein production is reported as “failed”.
With “MATQYGALSYSSRTQSPARVMTRVMVEARRVLLGALATAAVVAFMSAVGWVALLALTVTIPFATIVVALAMAIRHFRQDRRALA” the protein production was “failed”.
For “MRDTLPEWYKTKKNICDQMTEEINLWGYDMIETPTLEYYETVGVVSAILDQQLFKLLDQQGNTLVLRPDMTAPIARLVASSLKDRAYPLRLAYQSNVYRAQQNEGGKPAEFEQLGVELIGDGTASADGEVIALMIAALKRAGLSEFKVAIGHVGYVNALLMDVVGNEQRADRLRRFLYEKNYVGYREHVKSLNLSTIDKSRLMNLLSLRGGRAAIEEARGLIQTEKGKTALAEMTKLYEVLESYGASEYVKFDLTLVLHMSYYTGVVFEGYGNRLGVPLCSGGRYDELLSKFHRPAQATGFGVRIDLLVEALNGEIISN”, the protein production was “not failed”.
With “MRGKRGFFGHADSRVRLFCRRLTGKQRILLAGTASFLLAASCLYSILSCVSRFGEPGQRPAMGHIRSVVFRPERTRNIHSNIHKHENGLSENQGTARSVK” the protein production was “failed”.
For “MNYFPDEVIEHVFDFVASHKDRNSISLVCKSWHKIERFSRKEVFIGNCYAINPERLIRRFPCLKSLTLKGKPHFADFNLVPHEWGGFVHPWIEALARSRVGLEELRLKRMVVTDESLDLLSRSFANFKSLVLVSCEGFTTDGLASIAANCRHLRELDLQENEIDDHRGQWLNCFPDSCTTLMSLNFACLKGETNVAALERLVARSPNLKSLKLNRAVPLDALARLMSCAPQLVDLGVGSYENEPDPESFAKLMTAIKKYTSLRSLSGFLEVAPLCLPAFYPICQNLISLNLSYAAEIQGNHLIKLIQLCKRLQRLWILDSIGDKGLAVVAATCKELQELRVFPSDVHGEEDNNASVTEVGLVAISAGCPKLHSILYFCKQMTNAALIAVAKNCPNFIRFRLCILEPHKPDHITFQSLDEGFGAIVQACKGLRRLSVSGLLTDQVFLYIGMYAEQLEMLSIAFAGDTDKGMLYVLNGCKKMRKLEIRDSPFGNAALLADVGRYETMRSLWMSSCEVTLGGCKRLAQNSPRLNVEIINENENNGMEQNEEDEREKVDKLYLYRTVVGTRKDAPPYVRIL”, the protein production was “failed”.
For “MSEKPLISVLMPNYNSEKYLNEAIESILNQTYENFEFIILDDCSTDNSWKIIQEYAKKDKRINIFRNEKNLGRPKTYNRLLNMISNESFFFFFMGSDDVVKENMINIKLNYFNNFEEIDGIGNSIEYVDENLNFIKKREYPLTDRDIRKNFLIFNPISQGGMCLKSNLKNETFNEKYKVCLDYEIWTRLIDKGYTFENLKESLYLYRQQREQAKQKNLKMTLVNTVKIKSKYLFRPQYFSINAFLRFNLEILLLMLPKKLILWVFYKSL”, the protein production was “failed”.
For “MAGRVHPRQLAFSLPHAESLSRDNFLEGPANAAGLALIDGWPEWPNRIMWLAGPEGSGKSHLAAIWAEEAGARSTTANALSAAGVPGALATGALVVEDLKAKDFDERALFHLMNLAREDGAYVLFTGRDVPAALDIELNDLRSRLRAVPVVMLLPPDDQLFRGLIVKFCADRQLTVDESVVSYLATRLERSSAAARQAVELLDSEALRLGRPVTRALAAELLRDALEHHHHHH”, the protein production was “not failed”.
With “MTIADIVMLTATIIIWSLLIVNILLVIFGYVYYLKTDPVAPPPVEDEDAPFVSIMVPAHNEGIVIVRTVEALLNFNYPQDRYEIIVINDNSSDNSAELLANVQKKAVNRNLQIINTDNITGGKGKSNALNIGFKQAKGDVIAIYDADNTPEPNALRYLVGELIASEEYGAVIGKFRTRNRNASLLTRFINIETLAFQWMAQAGRFQLFKLCTIPGTNFIVRRSIIEAIGGWDDKALAEDTEISFRIYMMGYKIKFQPKAVTWEQEPQTLSVWFRQRTRWVKGNIYVIVKNAKLLFNPKASRIRFDILYFLSIYFLLMTSLVLSDIMLVLSMSGYLTTTLQGFSNSLWLLAILLFIFSTFVSITTEKGEMTLENILIIALMYITYSQMWLVVAAYGMVMYIKENVFHKQTQTKWYKTERFK” the protein production was “failed”.
With “MFLPKFNPIRSFSPILRAKTLLRYQNRMYLSTEIRKAIEDAIESAPVVLFMKGTPEFPKCGFSRATIGLLGNQGVDPAKFAAYNVLEDPELREGIKEFSEWPTIPQLYVNKEFIGGCDVITSMARSGELADLLEEAQALVPEEEEETKDR” the protein production was “failed”.
For “MSLDLPEGHPLKTLYQENKEIMKDAEMLNLYAKTLATTKDERMREEILGVLEEIVSSLRMVGFTHYNREEMLIFPYIERRGLTVIATVLWTKHDEIRAMIKQLAELLRKREEMPWEEFVEKFKAKAGEVAFALSDMVFRENNIFYPTLKALLSEGEWKAIKMQEDEIGYYKVKPPEWDPGEDVKPLHPWEINPELNVEQLLTLPKEVQQALRGQPLEFDKTQLKREEDIDLGTGYLNIEELKAIFEALPVDVTFIDKDDRVRFFSPGERIFTRTPSVLGRPVQLCHPPKSVYVVNKILKAFKEGRKKEATFWLRLREKYVYIKYVPLFNEKGEYIGTLEMTMDIAPYKKIEGEKRLLDWRDEGHITITTDPNSSSVDKLAAALEHHHHHH”, the protein production was “not failed”.
For “MKLLNVLLLTTSLSVFYTYAETDYQWLRDDSRSEPAVKQFLAEHNRKTDHWFAPAKPLVQELVNEWQQTSQHKAPPPALIYANQQYNDIQWNGHRHIVKIGAQGQIEPLLNLSARAEPFDYYQLASWSLDRSVQSVALAEDTRGDEQFKLTIVRLADRTEQIVSETASTYFAWAADGKSLYYLSDLNGSTQLQRFELETGQSTRLAEWRSAEWLFSLYSASNPRYLVVQQNNENSTQQRLLDTQTGELMPWLRTTEPGLEYYADVLGETLYINSNHQGAFRLYRQPLHTKQDWQSVTTHKEIGSLSNFYLFDAGIVLVENQTLAPKVWVLDSQGEVRTHFELRDLGQVAWISRNGDAVSNRLRVRTMSMTEPASWHELDVAQLQWQQLSQDHYADFDPKQYQTQTVWVTQGAIQVPVTLAYRSDKLTPNSSVVLYGYGAYGVTMKPYFMPQIVSLLDRGMIYAIAHVRGGGYLGEAWHQAGAGLNKQNGIDDFLAAARYLTHFQQGERAIYTIGGSAGGTLVAAALNQQPNLFAGAVLQVPFVDVLASMSDTSQALTAQQYQEWGNPQQPEQRQVMQAYDPLSNLRAAPYPPTLVNVGWWDNRVPYWEGARYLARLSDVSQGAGPYLLSTDFQAGHASDRRQALEKQAREYAFFLTLDKTRKAGQ”, the protein production was “failed”.
For “MTSRSATATARTSSEARAVARTQTLIKGEHGIGTVRRTTLPGGLRIVTETLPSVRSATFGIWAHVGSRDETPALNGATHYLEHLLFKGTRKRSALDISSAIDAVGGEMNAFTAKEYTCYYARVLDTDLPLAIDVVCDMLTGSLIQEEDVDVERGAILEEIAMTEDDPGDCVHDLFAHTMFGDNALGRPVLGTVDTVNALTADRIRRFYRKHYDPTHLVVAAAGNVDHNKVVRQVRAAFEKSGALKDPAAQPLAPRAGRRTVRAAGRVELIGRKTEQAHVILGMPGLARTDERRWAMGVLNTALGGGMSSRLFQEVREKRGLAYSVYSYTSGFADCGLFGVYAGCRPSQVHDVLKICRDELDHVAEHGLTDDEIGRAVGQLQGSTVLGLEDTGALMNRIGKSELCWGEQMSVDDMLARIASVTPDDVRAVARDVLGRRPSLSVIGPLKDKQASRLHDAVA”, the protein production was “failed”.
In the case of “MNKERNIIIAKNIRKFLNDSNMSQKKLAELINIKPSTLSDYLNLRSNPSHGVIQRIADVFEVGKSDIDTTYKDDNDITSIYNKLTPPRQENVLNYANEQLEEQNSKGDNVVDINSYKQEKTPVNVNGCVSAGVGERLHDETLFTEMVKGPIPTHDLALKVNGDSMEPMFKDGEIIFVEKTHNIKNGQIGIFIIEEEAYVKKVFVEDDRLTLVSLNKDYDDLHFYRNESVRLIGKVIL”, the protein production is reported as “failed”.
In the case of “WLDDGKNGGQLGSVEASAVYRNTQVFGEAAYATEPGALSWICGVQSDLAKGITGVVSMRDYAFEYYSPFAGAFAERGDNASNESGLYLGLKAKVRDNLTLAGLYDRFRFPVLDKRYYVYPSSGYEARFYATWKQNRWMTWDAMYQHKEKEEAKKQFDSNIGTSRYIPVPKITNRVQLGLVVECSPGITLKSRAAFKSLRSHFVTGAESEEGWLLYQQINLKRGPFTLKTRLARFDTDSYDVALYAYEDDLPLVYMLNAYYGRGKAWFIVLDFEPVKNFNLTAKYETTWYDDRDVYSSGNDLRNTSSPGSYHVGCMLKF”, the protein production is reported as “failed”.
In the case of “MFITLSERFGLLLAGGFAIMTLAPLDKLGPGRTRSWRATALLVVLFSLFTILGTYNGNIVFQSFANLRAMGAVTAGLFGGPMVGALTGLIAGGHRYFIDVGGFSAVPCGLATFLEGLAAGLFAWRFPSRSLDWGTAMTFAAVGEAVHMCLVLGLARPYAQAVDLVEVIGLPMILLNGVGAAIFVQALRMQMHFRDLRDSSQARQILSIANRTLPHLRAGLSAASARATAEIILDETRVAAVALTSNDMVMAHVGAASDHHRAGHSVCTQATRRVATDGIPLFVTGHDEIGCQLEACPLCSAIIVPLRKGDTILGCLKLYGTKDRPLDQTLFELAKGLADLFATQIELEDIGIKNQLLARAEIRRLQAQINPHFLFNSLNTVASFCRTAPGQARELILDLARYMRRNLDTSREAIHLAEEVEQIRAYLVIEKARFGERIRAVIDIDPETEHCLVPPLLIQPLVENSVRHGILGNEEGGVVRLATSMEDGHVVVVVEDDGAGMPESTRQGILNGTPVTAHGEGIGASNCNQRLVQLYGPAYALSIDSAPGMGTRITFRVPASTDAEVFASAAA”, the protein production is reported as “failed”.
In the case of “MDGKRVWLSDDELTRFIEQAETPHQRLAFLLAGRVGLRRSEIIEVCPQDLVDGPTGDHIRVWESYAKRDKYREPPVPQEVVTIAETLAYQQDDDEPLLDVAGSTVYRWVRRAADELEEETGDRGWQYLDVHDLRRTWGTYLLEQGVIPSVVMSFGGWEDWDTFRKHYLGEFSLEHHHHHH”, the protein production is reported as “not failed”.
For “KYYWNNVNYDPATLFSASCLLFYVLDAIIFEHHLSSSFELQHEGYGCLLLLRYAATPYLLTAVTKYFYEQRVPISCWYAPLAVAALLSLGLLVKRFSCAYKYKYRLNSQSPIFANIETIHTYQGSRLLLSGMWGWVRQPNYLGDIVALLALAAPMALRPAWPPVLGLSLIILLLLHRATRANARNQARYHSSWQRYSTQVRSYILPRVY”, the protein production was “failed”.
With “MKRIILLAFLCTTTLVMAQRINHVQEAIANYDYEAALTLIAKEKPTIPLLLQKGKAQRGLGMNTEALSTYQEIIANDTANTRAYIEAAECCRSLAKYQQALKYYEQALDLNPENKYVRIQYIGLLLSLQKFQDALGESSLMTEKDSSAIALHLQAQSFEGMGELLPATGCYYNIQEKYPDDYLAAAKLAALNIAGSYFNEAIEATEKYRQTDTTNIAVNRQNALAYCLNKDYPTAIQRYEYLVSQGDSSFHTCYYLGISYYAEEKYYEAHDFLEAARKHDPENVNLLYYLGRACAKTSWKKLGVEYLEKALDLTIPKDSNMVRLYIGMTDCYKMAQMPKEQIESIRERYRKYDKQNHKLLYDMAFIYFYSLKDKKNTERCLEAFLKTRPKEDKEEEAKLNERGELVLGTKNYYNAAANWLKDIQSKQKIEDFFLGGNVPAQKPE” the protein production was “failed”.
With “MTAHKQPEANETESLLEQVQALESEVRGVVKTQLQLAGMETRRAGESFVRMVAFAVLAACLAFTAWAVLVTAAVIAIVNSSVMSLTTALVIVAVAHLAAAFYIVRYIKRRSRDLLFAETSSSL” the protein production was “failed”.
With “MTAENSATPDYRRNVGAVADALLAHPGPIVVLSHENPDGDALGSVLGLSRALRTLGKTVLAPMTVPHYLSFLPQPGELTAPLESWPQGALAAVLDVDNNDPVRVAGADLTQFDGPVVNVDHHGTNLRRADAGVVDPSKPAAAMMVADVIDALGAPWSEAVATPLMLGLNTDTGNFAFDSVSAETFECAARLRAHGARIGWLNDQMRQNPQSYYLLLREVLGKLEFLHGGRVVQTRVDEEMLARAGATWEQVENYVSMLRNAEGAQLAVMAKDYGDRVKFSLRSRGPVSAQNIAVALGGGGHVPAAGATVISSYAEARARLDAAIEAELARVDAQATAE” the protein production was “failed”.
